Results published in US20180120332A1 (CLEMSON UNIVERSITY RESEARCH FOUNDATION, published 2018).
Ends that are not written are not given here.

Target: αvβ3 integrin on human umbilical vein endothelial cells (HUVECs) (human, UniProt P06756 31-1048; P05106 27-788)
Experiment: cell-based or functional assay

Chain of αvβ3 integrin on human umbilical vein endothelial cells (HUVECs) (P06756 31-1048, chain 1 of 2): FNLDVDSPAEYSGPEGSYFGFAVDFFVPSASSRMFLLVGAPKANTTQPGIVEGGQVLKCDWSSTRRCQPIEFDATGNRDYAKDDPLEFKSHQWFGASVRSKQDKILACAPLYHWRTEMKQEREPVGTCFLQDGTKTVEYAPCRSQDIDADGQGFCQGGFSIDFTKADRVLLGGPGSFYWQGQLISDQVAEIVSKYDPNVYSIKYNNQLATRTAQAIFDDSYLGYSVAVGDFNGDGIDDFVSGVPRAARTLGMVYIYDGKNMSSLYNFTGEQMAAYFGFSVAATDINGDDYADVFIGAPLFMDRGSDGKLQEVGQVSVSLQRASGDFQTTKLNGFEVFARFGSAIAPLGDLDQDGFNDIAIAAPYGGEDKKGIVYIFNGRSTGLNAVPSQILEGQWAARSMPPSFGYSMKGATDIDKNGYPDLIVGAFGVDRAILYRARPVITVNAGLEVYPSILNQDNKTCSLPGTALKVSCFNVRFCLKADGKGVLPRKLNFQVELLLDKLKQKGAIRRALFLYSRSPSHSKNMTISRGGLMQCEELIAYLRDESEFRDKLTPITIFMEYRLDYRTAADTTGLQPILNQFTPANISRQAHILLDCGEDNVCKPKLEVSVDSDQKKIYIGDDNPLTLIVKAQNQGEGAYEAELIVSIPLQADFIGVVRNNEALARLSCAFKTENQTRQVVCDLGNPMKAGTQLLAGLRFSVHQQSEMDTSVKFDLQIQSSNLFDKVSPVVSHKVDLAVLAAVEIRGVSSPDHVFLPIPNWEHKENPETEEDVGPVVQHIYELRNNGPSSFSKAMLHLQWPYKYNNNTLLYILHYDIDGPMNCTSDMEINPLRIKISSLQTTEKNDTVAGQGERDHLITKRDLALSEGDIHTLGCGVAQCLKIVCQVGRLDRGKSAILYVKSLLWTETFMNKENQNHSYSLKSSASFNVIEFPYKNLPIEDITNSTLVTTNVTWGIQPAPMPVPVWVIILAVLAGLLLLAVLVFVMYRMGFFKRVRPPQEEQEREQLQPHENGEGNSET
Chain of αvβ3 integrin on human umbilical vein endothelial cells (HUVECs) (P05106 27-788, chain 2 of 2): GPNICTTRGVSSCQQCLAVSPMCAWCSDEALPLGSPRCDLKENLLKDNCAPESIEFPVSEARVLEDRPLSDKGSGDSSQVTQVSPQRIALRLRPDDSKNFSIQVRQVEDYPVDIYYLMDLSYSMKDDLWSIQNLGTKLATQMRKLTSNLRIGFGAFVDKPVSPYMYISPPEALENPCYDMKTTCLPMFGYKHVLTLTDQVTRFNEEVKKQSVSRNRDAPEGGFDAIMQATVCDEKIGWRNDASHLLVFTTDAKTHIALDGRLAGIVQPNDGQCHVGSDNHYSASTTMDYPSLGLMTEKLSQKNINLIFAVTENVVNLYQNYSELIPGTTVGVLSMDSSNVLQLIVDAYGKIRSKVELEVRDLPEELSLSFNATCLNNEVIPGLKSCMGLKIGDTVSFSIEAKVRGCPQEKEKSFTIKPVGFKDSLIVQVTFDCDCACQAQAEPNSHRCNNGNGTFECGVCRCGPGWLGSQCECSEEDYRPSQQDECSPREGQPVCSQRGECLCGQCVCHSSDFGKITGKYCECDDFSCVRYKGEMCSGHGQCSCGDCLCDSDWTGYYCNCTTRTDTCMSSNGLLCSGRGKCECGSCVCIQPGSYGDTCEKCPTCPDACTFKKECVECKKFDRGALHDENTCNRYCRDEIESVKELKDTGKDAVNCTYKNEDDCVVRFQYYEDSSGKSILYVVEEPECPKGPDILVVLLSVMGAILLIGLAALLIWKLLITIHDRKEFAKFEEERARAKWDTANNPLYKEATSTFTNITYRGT

| decrease in HUVEC adhesion on peptide functionalized alginate when αvβ3 integrin is blocked [%] | Binder |
| --- | --- |
| ~60 | TFALRGDNP (also: N-terminus conjugated to oxidized alginate (EDC-NHS) or methacrylated and co-polymerized with PEGDA) [α1 peptide (TFALRGDNP), RGD peptide derived from laminin α1 subunit] |
| ~35 | RGDSP (also: N-terminus conjugated to oxidized alginate (EDC-NHS) or methacrylated and co-polymerized with PEGDA) [RGDSP peptide] |
| ~35 | RGDS (also: N-terminus conjugated to oxidized alginate (EDC-NHS) or methacrylated and co-polymerized with PEGDA) [RGDS peptide] |
